Results published in patent US20020160975A1, “Conserved XIAP-interaction motif in caspase-9 and Smac/DIABLO for mediating apoptosis” (Thomas Jefferson University, priority 2001, published 2002).

How the values were obtained:
XIAP [1] = molecular target: T1, XIAP (Homo sapiens, UniProt P98170); test: Cytochrome c-dependent caspase-3 activation in 293T S100 extracts containing XIAP (DEVD-AMC); type: biochemical; details: 25, 100 and 500 μM peptide, XIAP 10 nM, cytochrome c and dATP
T1 construct: made in house; host or cells: in vitro translation (cell-free)
Experimental: The activity of caspase-3 in the S100 extracts was measured using the peptide substrate DEVD-AMC.

XIAP [2] = molecular target: T1, XIAP; test: Far Western blot analysis with 35S-labeled XIAP; type: binding; details: for binding of XIAP by Far Western: proteins on nitrocellulose membrane, denatured and renatured; for ability to interact with BIR3 (Far western, FIG. 12B): recombinant caspase-9 mutants
[3] = molecular target: T2, E314S mutant BIR3 domain of XIAP (Homo sapiens, UniProt P98170, E314S); test: Interaction of GST fusion proteins with 35S-labeled E314S mutant BIR3; type: binding; details: compared with WT BIR3
T2 construct: made in house
Source text: (§1) The C-terminal GST fusion proteins were expressed in bacteria and then immobilized onto glutathione-affinity resin. […] The caspase-9 deletion mutants used in these studies are represented by bar diagrams above the panel in FIG. 10.

[4] = molecular target: T3, isolated BIR3 domain of XIAP (UniProt P98170 238-358, limits assumed); test: method not stated
T3 construct: domain: BIR3; In vitro translated 35S-labeled BIR3 in pull-downs; purified XIAP-BIR3 in enzyme assays; also called XIAP-BIR3; WT BIR3

[5] = molecular target: T4, X-linked inhibitor of apoptosis protein (XIAP), full length (UniProt P98170 1-497); test: Far western with 35S-labeled XIAP
T4 construct: Used as in vitro translated 35S-labeled full length XIAP (pull-down, Far western) or as purified XIAP (holoenzyme experiments); also called full length XIAP; 35S-labeled XIAP

[6] = molecular target: T5, isolated BIR3 domain of XIAP, P98170
T5 chain: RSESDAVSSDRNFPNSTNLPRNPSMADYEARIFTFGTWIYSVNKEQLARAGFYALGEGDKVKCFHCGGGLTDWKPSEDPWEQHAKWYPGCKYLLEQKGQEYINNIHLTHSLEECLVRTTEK

[7] = molecular target: T4, X-linked inhibitor of apoptosis protein …; test: gel filtration on Superose 6 and immunoblot of fractions
full length XIAP = molecular target: T6, full length XIAP (Homo sapiens, UniProt P98170); test: In vitro interaction assay of GST fusion proteins with 35S-labeled XIAP; type: binding; details: for interaction with full length XIAP: C-terminal GST fusion proteins immobilized onto glutathione-affinity resin
T6 construct: full length XIAP or the isolated BIR3 domain of XIAP; made in house; host or cells: in vitro translation (cell-free)
Source text: as §1

[8] = molecular target: T7, isolated BIR3 domain of XIAP (Homo sapiens, UniProt P98170); test: In vitro interaction assay of GST fusion proteins with 35S-labeled BIR3; type: binding; details: for interaction with isolated BIR3 domain of XIAP: C-terminal GST fusion proteins immobilized onto glutathione-affinity resin
T7 construct: full length XIAP or the isolated BIR3 domain of XIAP; made in house; host or cells: in vitro translation (cell-free)
Source text: as §1

[9] = molecular target: T8, E314S mutant BIR3 domain of XIAP (UniProt P98170 238-358, limits assumed); test: GST pull-down of 35S-labeled E314S BIR3
T8 construct: domain: BIR3; 35S-labeled, in vitro translated

[10] = less than p12 and linker peptide

ATPFQ (listed as Homo sapiens) [p12-N5]
promoting caspase-3 activation in XIAP containing extracts (XIAP [1]): as effective in promoting caspase-3 activation as the Smac-N5 or N7 peptides

B1: Smac-GST: mature Smac/DIABLO GST-fusion protein (protein)
chain: AVPIAQKSEPHSLSSEALMRRAVSLVTDSTSTFLSQTTYALIEAITEYTKAVYTLTSLYRQYTSLLGKMNSEEEDEVWQVIIGARAEMTSKHQEYLKLETTWMTAVGLSEMAAEAAYQTGADQASITARNHIQLVKLQVEEVHQLSRKAETKLAEAQIEELRQKTQEEGEERAESEQEAYLRED
modifications: left off: a dimerising Fc or GST
notes: mature Smac/DIABLO GST-fusion protein
binding of XIAP by Far Western (XIAP [2]): able to bind
binding to E314S mutant BIR3 [3]: abrogated binding

ATPFQEGLRTFDQLD [chemically synthesized caspase-9 linker peptide (ATPFQEGLRTFDQLD)]
Kd [4]: 550 nM

B2: single mutant (D315A) caspase-9 (enzyme)
chain: MDEADRRLLRRCRLRLVEELQVDQLWDALLSRELFRPHMIEDIQRAGSGSRRDQARQLIIDLETRGSQALPLFISCLEDTGQDMLASFLRTNRQAAKLSKPTLENLTPVVLRPEIRKPEVLRPETPRPVDIGSGGFGDVGALESLRGNADLAYILSMEPCGHCLIINNVNFCRESGLRTRTGSNIDCEKLRRRFSSLHFMVEVKGDLTAKKMVLALLELAQQDHGALDCCVVVILSHGCQASHLQFPGAVYGTDGCPVSVEKIVNIFNGTSCPSLGGKPKLFFIQACGGEQKDHGFEVASTSPEDESPGSNPEPAATPFQEGLRTFDQLDAISSLPTPSDIFVSYSTFPGFVSWRDPKSGSWYVETLDDIFEQWAHSEDLQSLLLRVANAVSVKGIYKQMPGCFNFLRKKLFFKTS
notes: also called caspase-9 D315A
binding of XIAP by Far Western (XIAP [2]): not able to bind
binding result [5]: no binding

B3: GG: caspase-9 with first two p12 residues Ala-Thr mutated to Gly-Gly (protein, UniProt P55211 1-416, looked up, variant A316G T317G)
chain: MDEADRRLLRRCRLRLVEELQVDQLWDALLSRELFRPHMIEDIQRAGSGSRRDQARQLIIDLETRGSQALPLFISCLEDTGQDMLASFLRTNRQAAKLSKPTLENLTPVVLRPEIRKPEVLRPETPRPVDIGSGGFGDVGALESLRGNADLAYILSMEPCGHCLIINNVNFCRESGLRTRTGSNIDCEKLRRRFSSLHFMVEVKGDLTAKKMVLALLELAQQDHGALDCCVVVILSHGCQASHLQFPGAVYGTDGCPVSVEKIVNIFNGTSCPSLGGKPKLFFIQACGGEQKDHGFEVASTSPEDESPGSNPEPDGGPFQEGLRTFDQLDAISSLPTPSDIFVSYSTFPGFVSWRDPKSGSWYVETLDDIFEQWAHSEDLQSLLLRVANAVSVKGIYKQMPGCFNFLRKKLFFKTS
ability to interact with BIR3 (Far western, FIG. 12B) (XIAP [2]): lost significantly the ability to interact

B4: SG: caspase-9 with first two p12 residues Ala-Thr mutated to Ser-Gly (protein, UniProt P55211 1-416, looked up, variant A316S T317G)
chain: MDEADRRLLRRCRLRLVEELQVDQLWDALLSRELFRPHMIEDIQRAGSGSRRDQARQLIIDLETRGSQALPLFISCLEDTGQDMLASFLRTNRQAAKLSKPTLENLTPVVLRPEIRKPEVLRPETPRPVDIGSGGFGDVGALESLRGNADLAYILSMEPCGHCLIINNVNFCRESGLRTRTGSNIDCEKLRRRFSSLHFMVEVKGDLTAKKMVLALLELAQQDHGALDCCVVVILSHGCQASHLQFPGAVYGTDGCPVSVEKIVNIFNGTSCPSLGGKPKLFFIQACGGEQKDHGFEVASTSPEDESPGSNPEPDSGPFQEGLRTFDQLDAISSLPTPSDIFVSYSTFPGFVSWRDPKSGSWYVETLDDIFEQWAHSEDLQSLLLRVANAVSVKGIYKQMPGCFNFLRKKLFFKTS
ability to interact with BIR3 (Far western, FIG. 12B) (XIAP [2]): lost significantly the ability to interact

B5: double mutant (D315/D330A) caspase-9 (enzyme)
chain: MDEADRRLLRRCRLRLVEELQVDQLWDALLSRELFRPHMIEDIQRAGSGSRRDQARQLIIDLETRGSQALPLFISCLEDTGQDMLASFLRTNRQAAKLSKPTLENLTPVVLRPEIRKPEVLRPETPRPVDIGSGGFGDVGALESLRGNADLAYILSMEPCGHCLIINNVNFCRESGLRTRTGSNIDCEKLRRRFSSLHFMVEVKGDLTAKKMVLALLELAQQDHGALDCCVVVILSHGCQASHLQFPGAVYGTDGCPVSVEKIVNIFNGTSCPSLGGKPKLFFIQACGGEQKDHGFEVASTSPEDESPGSNPEPAATPFQEGLRTFDQLAAISSLPTPSDIFVSYSTFPGFVSWRDPKSGSWYVETLDDIFEQWAHSEDLQSLLLRVANAVSVKGIYKQMPGCFNFLRKKLFFKTS
notes: also called caspase-9 D315/330A
binding of XIAP by Far Western (XIAP [2]): not able to bind
binding result [5]: no binding

B6: caspase-9 linker deletion mutant (residues 316 to 330 of SEQ ID NO:1 deleted) (protein)
chain 1: MDEADRRLLRRCRLRLVEELQVDQLWDALLSRELFRPHMIEDIQRAGSGSRRDQARQLIIDLETRGSQALPLFISCLEDTGQDMLASFLRTNRQAAKLSKPTLENLTPVVLRPEIRKPEVLRPETPRPVDIGSGGFGDVGALESLRGNADLAYILSMEPCGHCLIINNVNFCRESGLRTRTGSNIDCEKLRRRFSSLHFMVEVKGDLTAKKMVLALLELAQQDHGALDCCVVVILSHGCQASHLQFPGAVYGTDGCPVSVEKIVNIFNGTSCPSLGGKPKLFFIQACGGEQKDHGFEVASTSPEDESPGSNPEPD
chain 2: AISSLPTPSDIFVSYSTFPGFVSWRDPKSGSWYVETLDDIFEQWAHSEDLQSLLLRVANAVSVKGIYKQMPGCFNFLRKKLFFKTS
DEVD-AMC cleaving activity in S100 extracts with or without XIAP-BIR3 (20 nM) [6]: the deletion of the linker region did not inhibit enzymatic activity, even in the presence of XIAP-BIR3

B7: fully processed wild-type (WT) caspase-9 (enzyme)
chain 1: MDEADRRLLRRCRLRLVEELQVDQLWDALLSRELFRPHMIEDIQRAGSGSRRDQARQLIIDLETRGSQALPLFISCLEDTGQDMLASFLRTNRQAAKLSKPTLENLTPVVLRPEIRKPEVLRPETPRPVDIGSGGFGDVGALESLRGNADLAYILSMEPCGHCLIINNVNFCRESGLRTRTGSNIDCEKLRRRFSSLHFMVEVKGDLTAKKMVLALLELAQQDHGALDCCVVVILSHGCQASHLQFPGAVYGTDGCPVSVEKIVNIFNGTSCPSLGGKPKLFFIQACGGEQKDHGFEVASTSPEDESPGSNPEPD
chain 2: ATPFQEGLRTFDQLDAISSLPTPSDIFVSYSTFPGFVSWRDPKSGSWYVETLDDIFEQWAHSEDLQSLLLRVANAVSVKGIYKQMPGCFNFLRKKLFFKTS
notes: Procaspase-9 overexpressed in E. coli, completely processed into p35 and p12 (greater than 90% at Asp315, about 10% at Asp330 giving p10, minor at Glu306); also called wild type caspase-9; processed caspase-9; not shown: C-terminal 6-Histidine tag from pET-21c or pET-28a
binding result [7]: binds

B8: p10-GST: C-terminal GST fusion protein of caspase-9 p10 (residues 331-416 of SEQ ID NO:1) (protein)
chain: AISSLPTPSDIFVSYSTFPGFVSWRDPKSGSWYVETLDDIFEQWAHSEDLQSLLLRVANAVSVKGIYKQMPGCFNFLRKKLFFKTS
modifications: left off: a dimerising Fc or GST
interaction with full length XIAP (full length XIAP): only weakly
interaction with full length XIAP, fold less (full length XIAP; [10]): 50 to 100 fold
interaction with isolated BIR3 domain of XIAP [8]: only weakly
interaction with BIR3 domain, fold less [8, 10]: 50 to 100 fold
binding of XIAP by Far Western (XIAP [2]): not able to bind

B9: Caspase-9-p12 C-terminal GST fusion protein (residues 316-416 of SEQ ID NO:1) (other, not shown: a dimerising Fc or GST)
chain: ATPFQEGLRTFDQLDAISSLPTPSDIFVSYSTFPGFVSWRDPKSGSWYVETLDDIFEQWAHSEDLQSLLLRVANAVSVKGIYKQMPGCFNFLRKKLFFKTS
notes: also called p12-GST; GST-p12
binding result [5]: binds
binding result [9]: no binding

B10: p12: C-terminal GST fusion protein of Caspase-9-p12 (residues 316-416 of SEQ ID NO:1) (protein)
chain: ATPFQEGLRTFDQLDAISSLPTPSDIFVSYSTFPGFVSWRDPKSGSWYVETLDDIFEQWAHSEDLQSLLLRVANAVSVKGIYKQMPGCFNFLRKKLFFKTS
modifications: left off: a dimerising Fc or GST
interaction with full length XIAP (full length XIAP): able to interact
interaction with isolated BIR3 domain of XIAP [8]: able to interact
binding of XIAP by Far Western (XIAP [2]): able to bind
binding to E314S mutant BIR3 [3]: abrogated binding

AVPIAQK [Smac-N7 peptide (AVPIAQK)]
Kd [4]: ~810 nM

B11: SGVD176-179AVPF: caspase-3 with first four residues of p12 substituted with AVPF (protein)
chain 1: SGISLDNSYKMDYPEMGLCIIINNKNFHKSTGMTSRSGTDVDAANLRETFRNLKYEVRNKNDLTREEIVELMRDVSKEDHSKRSSFVCVLLSHGEEGIIFGTNGPVDLKKITNFFRGDRCRSLTGKPKLFIIQACRGTELDCGIETD
chain 2: AVPFDDMACHKIPVEADFLYAYSTAPGYYSWRNSKDGSWFIQSLCAMLKQYADKLEFMHILTRVNRKVATEFESFSFDATFHAKKQIPCIVSMLTKELYFYH
binding of XIAP by Far Western (XIAP [2]): enhanced binding
